Measurements reported in patent US20230192789A1, “STRUCTURALLY-STABILIZED AND HDMX-SELECTIVE P53 PEPTIDES AND USES THEREOF” (Dana-Farber Cancer Institute, Inc., priority 2020, published 2023).
Bridges are numbered along the chain shown (N, C = ends). Where no end group is shown, it is not given here. [ ]: non-standard residue; d: D form. The star is where a group is joined. Biotin = O=C1N[C@H]2[C@H](CS[C@H]2CCCCC(=O)*)N1; R8 = C=CCCCCCC[C@@](C)(N)C(=O)O; S5 = C=CCCC[C@](C)(N)C(=O)O

B1: ATSP-7041 B26E (peptide)
peptide: LTF[R8]EYWAQE[S5]SAA-NH2
modifications: staple 4-11; not fully specified; printed as LTF8EYWAQEXSAA
notes: also called ATSP B26E; LTF8EYWAQEXSAA
B2: ATSP-7041 B26H (peptide)
peptide: Biotin-LTF[R8]EYWAQH[S5]SAA-NH2
modifications: staple 4-11
SMILES: CC(C)C[C@H](NC(=O)CCCC[C@@H]1SC[C@@H]2NC(=O)N[C@@H]21)C(=O)N[C@H](C(=O)N[C@@H](Cc1ccccc1)C(=O)N[C@]1(C)CCCCCCC=CCCC[C@@](C)(C(=O)N[C@@H](CO)C(=O)N[C@@H](C)C(=O)N[C@@H](C)C(N)=O)NC(=O)[C@H](Cc2c[nH]cn2)NC(=O)[C@H](CCC(N)=O)NC(=O)[C@H](C)NC(=O)[C@H](Cc2c[nH]c3ccccc23)NC(=O)[C@H](Cc2ccc(O)cc2)NC(=O)[C@H](CCC(=O)O)NC1=O)[C@@H](C)O
B3: ATSP-7041 B26D (peptide)
peptide: Biotin-LTF[R8]EYWAQD[S5]SAA-NH2
modifications: staple 4-11
SMILES: CC(C)C[C@H](NC(=O)CCCC[C@@H]1SC[C@@H]2NC(=O)N[C@@H]21)C(=O)N[C@H](C(=O)N[C@@H](Cc1ccccc1)C(=O)N[C@]1(C)CCCCCCC=CCCC[C@@](C)(C(=O)N[C@@H](CO)C(=O)N[C@@H](C)C(=O)N[C@@H](C)C(N)=O)NC(=O)[C@H](CC(=O)O)NC(=O)[C@H](CCC(N)=O)NC(=O)[C@H](C)NC(=O)[C@H](Cc2c[nH]c3ccccc23)NC(=O)[C@H](Cc2ccc(O)cc2)NC(=O)[C@H](CCC(=O)O)NC1=O)[C@@H](C)O
B4: ATSP-7041 B26C (peptide)
peptide: Biotin-LTF[R8]EYWAQC[S5]SAA-NH2
modifications: staple 4-11
SMILES: CC(C)C[C@H](NC(=O)CCCC[C@@H]1SC[C@@H]2NC(=O)N[C@@H]21)C(=O)N[C@H](C(=O)N[C@@H](Cc1ccccc1)C(=O)N[C@]1(C)CCCCCCC=CCCC[C@@](C)(C(=O)N[C@@H](CO)C(=O)N[C@@H](C)C(=O)N[C@@H](C)C(N)=O)NC(=O)[C@H](CS)NC(=O)[C@H](CCC(N)=O)NC(=O)[C@H](C)NC(=O)[C@H](Cc2c[nH]c3ccccc23)NC(=O)[C@H](Cc2ccc(O)cc2)NC(=O)[C@H](CCC(=O)O)NC1=O)[C@@H](C)O
B5: ATSP-7041 B26G (peptide)
peptide: Biotin-LTF[R8]EYWAQG[S5]SAA-NH2
modifications: staple 4-11
SMILES: CC(C)C[C@H](NC(=O)CCCC[C@@H]1SC[C@@H]2NC(=O)N[C@@H]21)C(=O)N[C@H](C(=O)N[C@@H](Cc1ccccc1)C(=O)N[C@]1(C)CCCCCCC=CCCC[C@@](C)(C(=O)N[C@@H](CO)C(=O)N[C@@H](C)C(=O)N[C@@H](C)C(N)=O)NC(=O)CNC(=O)[C@H](CCC(N)=O)NC(=O)[C@H](C)NC(=O)[C@H](Cc2c[nH]c3ccccc23)NC(=O)[C@H](Cc2ccc(O)cc2)NC(=O)[C@H](CCC(=O)O)NC1=O)[C@@H](C)O

Target: T1, recombinant HDMX (amino acids 1-490 of SEQ ID NO:104) (Homo sapiens, UniProt O15151)
T1 construct: thioredoxin (N, cleaved yes); S tag (N, cleaved yes); hexahistidine (N, cleaved yes); made in house; host or cells: E. coli (inferred: pET32-LIC vector, handled as described for HDM2 in BL21(DE3))
T1 sequence (O15151 1-490): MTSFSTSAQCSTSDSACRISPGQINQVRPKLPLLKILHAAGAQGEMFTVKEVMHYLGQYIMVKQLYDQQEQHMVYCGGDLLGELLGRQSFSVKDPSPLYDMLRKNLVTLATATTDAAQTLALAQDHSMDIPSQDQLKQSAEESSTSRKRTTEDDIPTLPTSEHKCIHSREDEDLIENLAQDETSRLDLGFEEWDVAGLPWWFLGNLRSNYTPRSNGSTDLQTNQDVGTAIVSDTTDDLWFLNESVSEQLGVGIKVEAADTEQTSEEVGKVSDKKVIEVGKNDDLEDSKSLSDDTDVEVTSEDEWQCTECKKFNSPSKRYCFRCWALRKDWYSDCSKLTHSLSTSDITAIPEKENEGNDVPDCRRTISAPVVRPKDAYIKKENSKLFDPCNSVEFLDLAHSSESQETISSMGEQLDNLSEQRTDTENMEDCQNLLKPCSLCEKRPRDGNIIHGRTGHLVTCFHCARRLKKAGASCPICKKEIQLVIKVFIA
Assay: Competitive streptavidin pull-down of biotinylated peptides with 1:1 recombinant HDM2/HDMX mixture, HDMX western
Type: binding
Conditions: biotinylated stapled peptide, 1:1 mixture of recombinant HDM2 and HDMX

**Q.** Which “HDMX versus HDM2 binding selectivity” value does the source give for “ATSP-7041 B26T (Biotin-LTF[R8]EYWAQT[S5]SAA-NH2; staple 4-11; SMILES CC(C)C[C@H](NC(=O)CCCC[C@@H]1SC[C@@H]2NC(=O)N[C@@H]21)C(=O)N[C@H](C(=O)N[C@@H](Cc1ccccc1)C(=O)N[C@]1(C)CCCCCCC=CCCC[C@@](C)(C(=O)N[C@@H](CO)C(=O)N[C@@H](C)C(=O)N[C@@H](C)C(N)=O)NC(=O)[C@H]([C@@H](C)O)NC(=O)[C@H](CCC(N)=O)NC(=O)[C@H](C)NC(=O)[C@H](Cc2c[nH]c3ccccc23)NC(=O)[C@H](Cc2ccc(O)cc2)NC(=O)[C@H](CCC(=O)O)NC1=O)[C@@H](C)O)” here?
**A.** HDMX selectivity over HDM2

Target: T2, recombinant HDM2 (amino acids 17-125 of SEQ ID NO:103) (human, UniProt Q00987 17-125)
T2 construct: also called MDM2; not shown: thrombin cleavage site (pET28a vector)
Assay: streptavidin pull-down of biotinylated peptide with recombinant HDM2 and HDMX (1:1 mixture per paragraph 301), western blot
Conditions: not given

T2 sequence (Q00987 other isoform, or with tags, fused parts or gaps): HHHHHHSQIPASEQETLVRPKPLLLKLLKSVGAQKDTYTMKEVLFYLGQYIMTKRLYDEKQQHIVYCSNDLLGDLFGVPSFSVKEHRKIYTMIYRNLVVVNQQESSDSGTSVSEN

**Q.** Does B1 bind?
**A.** no binding

**Q.** Does B2 bind?
**A.** no binding

**Q.** Does B3 bind?
**A.** no binding

**Q.** Does B4 bind?
**A.** no binding

**Q.** Does B5 bind?
**A.** no binding
